Patent US6537965B1, “Amino-terminal modified parathyroid hormone (PTH) analogs” (The General Hospital Corporation, priority 1998, dated 2003)
Ends that are not written are not given here.

Assays:
rat PTHRs = biological target: T1, rat PTHRs (Rattus norvegicus, UniProt P25961); test: PLC activation in COS-7 cells expressing rat PTHRs; type: cell-based; conditions: up to 1000 nM
T1 construct: expressed in transfected cells; host or cells: COS-7 cells
T1 sequence (P25961 27-591): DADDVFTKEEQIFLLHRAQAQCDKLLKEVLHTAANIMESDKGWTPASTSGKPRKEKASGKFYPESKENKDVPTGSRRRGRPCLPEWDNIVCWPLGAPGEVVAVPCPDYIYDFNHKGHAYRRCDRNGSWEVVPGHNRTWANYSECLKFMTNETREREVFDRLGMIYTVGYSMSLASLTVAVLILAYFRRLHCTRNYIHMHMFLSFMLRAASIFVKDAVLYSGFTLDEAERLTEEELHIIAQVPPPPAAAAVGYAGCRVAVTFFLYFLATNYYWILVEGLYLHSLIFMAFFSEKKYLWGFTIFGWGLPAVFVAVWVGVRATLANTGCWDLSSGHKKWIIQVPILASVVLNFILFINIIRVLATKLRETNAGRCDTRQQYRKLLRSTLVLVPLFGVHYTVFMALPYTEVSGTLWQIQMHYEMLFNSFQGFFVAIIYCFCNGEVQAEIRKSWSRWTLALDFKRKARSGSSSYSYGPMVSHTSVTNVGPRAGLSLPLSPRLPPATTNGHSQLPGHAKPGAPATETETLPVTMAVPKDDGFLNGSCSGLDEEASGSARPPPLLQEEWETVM
Procedure: (§1) All cells were maintained under 5% CO2 in air in Dulbecco's modified […] containing 7% fetal bovine serum (FBS) and 1% penicillin/streptomycin (GIBCO-BRL, Grand Island, N.Y.). Cells were seeded into 24-well plates two days before assay at a suitable cell density (approximately 2-2.5×10^5 cells/well). DNA transfections in COS/HEK cells were performed 24 hr after plating and inositol radiolabel was added 24 hr thereafter (see below). Cell transfections were performed as previously described (Gardella, T. J., et al., Endocrinology 132(5):2024-2030 (1993)).
(§2) PLC was activated by PTH agonists in the presence of 30 mM LiCl at 37° C. for 30 min after 16 hr of labeling with [^3H]myo-inositol (3uCi/ml) in serum-free medium containing 0.1% bovine serum albumin. The reactions were stopped by rapid aspiration and addition of cold 5% TCA. Water-soluble radiolabeled inositol trisphosphate (IP3) was isolated after ether extraction by ion-exchange chromatography (Guo, J., et al., Endocrinology 136(9):3884-3891 (1995)). In experiments involving HEK 293 cells, cells previously transfected with human PTHR cDNA (in the pcDNA1 expression vector HKRK) using Lipofectamine (Gibco BRL) were labeled with [^3H]myo-inositol and assayed as described above, except that total water-soluble [^3H]inositol polyphosphates were collected as a single fraction from the ion-exchange columns.

human PTHRs [1] = biological target: T2, human PTHRs (Homo sapiens, UniProt Q03431); test: PLC activation in COS-7 cells expressing human PTHRs; type: cell-based; conditions: up to 1000 nM
T2 sequence (Q03431 27-593): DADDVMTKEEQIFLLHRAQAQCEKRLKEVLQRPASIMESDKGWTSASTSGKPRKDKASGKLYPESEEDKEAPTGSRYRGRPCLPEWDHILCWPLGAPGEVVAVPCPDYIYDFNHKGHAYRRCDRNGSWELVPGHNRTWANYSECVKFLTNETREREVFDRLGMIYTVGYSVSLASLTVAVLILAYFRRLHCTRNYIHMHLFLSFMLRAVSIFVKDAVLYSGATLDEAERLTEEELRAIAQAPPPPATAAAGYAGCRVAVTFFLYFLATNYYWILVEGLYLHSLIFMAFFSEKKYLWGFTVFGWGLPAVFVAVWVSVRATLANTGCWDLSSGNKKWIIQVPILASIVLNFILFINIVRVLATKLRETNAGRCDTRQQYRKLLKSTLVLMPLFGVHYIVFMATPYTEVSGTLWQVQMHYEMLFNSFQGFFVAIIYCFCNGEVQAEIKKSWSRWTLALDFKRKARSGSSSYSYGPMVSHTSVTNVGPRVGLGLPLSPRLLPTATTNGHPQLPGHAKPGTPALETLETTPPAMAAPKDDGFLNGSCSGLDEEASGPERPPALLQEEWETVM
Procedure: as §1, §2

hPTH-1 receptors = biological target: T3, hPTH-1 receptors (Homo sapiens, UniProt Q03431); test: phospholipase C (PLC) activity in HKRK-B7 cells; type: cell-based; parameters: expressed in transfected cells; conditions: about 1 million hPTH-1 receptors per cell, 1000 nM (FIG. 4)
T3 sequence (Q03431 27-593): T2 sequence (Q03431 27-593)
Text: The following cell lines were used in these studies. HKRK C53 subclones of LLC-PKI porcine renal epithelial cells which stably express human PTH-1 receptors (150,000 receptors/cell). SaOS-2 cells are transformed human osteosarcoma cells which express relatively few (10,000-20,000 per cell) human PTH-1 receptors. HPR2-7 cells are subclones of LLC-PK1 which express approximately 250,000 recombinant human PTH-2 receptors per cell. HKRK-B7 cells are subclones of LLC-PK which stably express approximately 1 million hPTH-1 receptors per cell. HPR2-22 cells are subclones of LLC-PK1 which express 1.5 million recombinant hPTH-2 receptors per cell. The HPR2-27 and HPR2-22 cell lines were created in the same fashion as the HKRK cells but employing instead type 2 PTH receptor cDNA using the transfection technique of (Bringhurst, F. R., et al., Endocrinology 132(5):2090-2098 (1993); Guo, J., et al., Endocrinology 136(9):3884-3891 (1995)).
as §2

human PTHRs [2] = biological target: T2, human PTHRs; parameters: host or cells: LLC-PK1, COS-7 or HEK 293 cells; conditions: human PTHRs in LLC-PK1, COS-7 or HEK 293 cells; cited from earlier work
human PTHRs [3] = biological target: T2, human PTHRs; parameters: host or cells: LLC-PK1, COS-7 or HEK 293 cells; conditions: human PTHRs in LLC-PK1, COS-7 or HEK 293 cells; cited from earlier work; remark: listed apart in the source

activation of PLC (rat PTHRs) | activation of PLC (human PTHRs [1]) | activation of PLC (hPTH-1 receptors) | Substance | potency in activating AC compared with hPTH-(1-34) (human PTHRs [2]) | potency in activating PLC compared with hPTH-(1-34) (human PTHRs [3])
did not activate PLC | did not activate PLC | did not activate PLC | hPTH-(3-34): N-truncated human PTH peptide, residues 3-34 (SEIQLMHNLGKHLNSMERVEWLRKKLQDVHNF-NH2; UniProt P01270 34-65, looked up, fragment) |  | 
 |  |  | hPTH-(1-31): C-truncated human PTH peptide, residues 1-31 | as potent as hPTH-(1-34) | as potent as hPTH-(1-34)
